{"source": "the supplement of paper PMC10724198", "note": "± gives the standard deviation of the averaged measurements.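 Note: PSI is a weighted mean of sequencing reads over stability bins, variants kept only with over 10 reads, mCherry proximal and sfGFP distal, peptide attached via GGGS linker.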"}
{"test_system": "Saccharomyces cerevisiae", "test": "protein stability index of tFT-peptide fusion (C-terminal peptide) (PSI (0-1 scale)); higher = more stable (slower turnover)", "details": "genetic background: wild type; temperature: 30 C", "experimental": "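Multiplexed protein stability (MPS) profiling in S. cerevisiae. Random 12-aa peptides (tFT-X12 library) are fused to the C-terminus of a sfGFP-mCherry tandem fluorescent timer, after mCherry and a GGGS linker. Cells are FACS-sorted into 8 mCherry/sfGFP bins and deep-sequenced. The protein stability index (PSI) is the read-weighted bin average, scaled from 0 (unstable) to 1 (stable). Only peptides with >10 reads are reported; cells were grown at 30 °C in SC-His with glucose.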"}
{"sequence": "GRRERSGKGKER", "protein stability index": "0.804 ± 0.14"}
{"sequence": "WMSLLEFGSLCG", "protein stability index": "0.748 ± 0.15"}
{"sequence": "GCSFVLCRGSNA", "protein stability index": "0.675 ± 0.034"}
{"sequence": "NQCRSQVRQNGY", "protein stability index": "0.762 ± 0.15"}
{"sequence": "LVGGRGSRSVEA", "protein stability index": "0.739 ± 0.12"}
{"sequence": "PTPPTPTISPTP", "protein stability index": "0.651 ± 0.0052"}
{"sequence": "DFEVGPMGGFRC", "protein stability index": "0.674 ± 0.057"}
{"sequence": "SSPHRPTPSWPP", "protein stability index": "0.564 ± 0.0069"}
{"sequence": "ESGTVINKNSNK", "protein stability index": "0.6661 ± 0.0054"}
{"sequence": "VPIRSGYLRPNF", "protein stability index": "0.573 ± 0.038"}
{"sequence": "TKVCWNVDYNVL", "protein stability index": "0.697 ± 0.012"}
{"sequence": "RGGWWGYRGGVP", "protein stability index": "0.718 ± 0.057"}
{"sequence": "PSSFPDPFSPSL", "protein stability index": "0.735 ± 0.037"}
{"sequence": "GRGACHSRGNQP", "protein stability index": "0.668 ± 0.014"}
{"sequence": "DRQRVGYRGPPH", "protein stability index": "0.639 ± 0.096"}
{"sequence": "RGVGFMGEGVTW", "protein stability index": "0.656 ± 0.069"}
{"sequence": "PLPPLPPPPPAA", "protein stability index": "0.682 ± 0.038"}
{"sequence": "GGKEEGAGRRGV", "protein stability index": "0.69 ± 0.059"}
{"sequence": "LCLDHAKQNPGK", "protein stability index": "0.6641 ± 0.0051"}
{"sequence": "FFSHSAPAPFPL", "protein stability index": "0.692 ± 0.017"}
{"sequence": "FRGATRPHSGRS", "protein stability index": "0.676 ± 0.048"}
{"sequence": "VAGFVPSWVALW", "protein stability index": "0.643 ± 0.1"}
{"sequence": "SESVGLCLGVTW", "protein stability index": "0.767 ± 0.05"}
{"sequence": "AREVGGRAGRRE", "protein stability index": "0.661 ± 0.012"}
{"sequence": "YEHPRLRNGSIM", "protein stability index": "0.8 ± 0.24"}
{"sequence": "PSSSSWPPPRHP", "protein stability index": "0.831 ± 0.18"}
{"sequence": "WLFRGELCGGAN", "protein stability index": "0.588 ± 0.014"}
{"sequence": "SLSIAPAPLDFP", "protein stability index": "0.655 ± 0.084"}
{"sequence": "PFSPHPGPPPPP", "protein stability index": "0.7659 ± 0.002"}
{"sequence": "PLPPPPTPPVLP", "protein stability index": "0.691 ± 0.016"}
{"sequence": "RTSGRIASLPGP", "protein stability index": "0.617 ± 0.031"}
{"sequence": "RKGRVLIMTYRK", "protein stability index": "0.682 ± 0.051"}
{"sequence": "GRYYVPGLAALV", "protein stability index": "0.653 ± 0.0085"}
{"sequence": "PPPHTRVIPSSP", "protein stability index": "0.6763 ± 0.0052"}
{"sequence": "PSPPPTPPPFLP", "protein stability index": "0.71 ± 0.054"}
{"sequence": "KDATVILSSRRR", "protein stability index": "0.745 ± 0.024"}
{"sequence": "ELHEETEKSKYR", "protein stability index": "0.74 ± 0.11"}
{"sequence": "SLVAALHRPTFV", "protein stability index": "0.679 ± 0.034"}
{"sequence": "VSLLSLRAFYKL", "protein stability index": "0.667 ± 0.05"}
{"sequence": "LKQTNQHKVNTD", "protein stability index": "0.643 ± 0.053"}
{"sequence": "NKHVMELPGEPG", "protein stability index": "0.647 ± 0.0079"}
{"sequence": "VCRVGGVMAGDT", "protein stability index": "0.669 ± 0.049"}
{"sequence": "DNAFATAYWIVV", "protein stability index": "0.647 ± 0.054"}
{"sequence": "AHMAQQNEQRVK", "protein stability index": "0.748 ± 0.071"}
{"sequence": "FLAGGRFLCIVV", "protein stability index": "0.593 ± 0.098"}
{"sequence": "YATLGPDRALVR", "protein stability index": "0.655 ± 0.0095"}
{"sequence": "PPPFRFPALLPP", "protein stability index": "0.6778 ± 0.0007"}
{"sequence": "GGCGAKWLSGGG", "protein stability index": "0.64 ± 0.025"}
{"sequence": "AETESASRCLHW", "protein stability index": "0.776 ± 0.026"}
{"sequence": "TCPLSFFLSFLF", "protein stability index": "0.565 ± 0.037"}
{"sequence": "WDSPVMCVTIID", "protein stability index": "0.628 ± 0.0094"}
{"sequence": "HVLQFQTNIRQN", "protein stability index": "0.636 ± 0.1"}
{"sequence": "LGRPRRGGGVSG", "protein stability index": "0.6998 ± 0.0012"}
{"sequence": "KKQRKRTKRKRK", "protein stability index": "0.693 ± 0.048"}
{"sequence": "PPPPRPPPALLP", "protein stability index": "0.736 ± 0.021"}
{"sequence": "APRRVAVAGETS", "protein stability index": "0.707 ± 0.043"}
{"sequence": "LPHFHPPLDPPA", "protein stability index": "0.692 ± 0.0079"}
{"sequence": "SAAVDSPIFPSS", "protein stability index": "0.6916 ± 0.00075"}
{"sequence": "PPPPFWPLSPAL", "protein stability index": "0.713 ± 0.039"}
{"sequence": "LLSRLWPASSSG", "protein stability index": "0.672 ± 0.08"}
{"sequence": "VLLSSWLIWLGG", "protein stability index": "0.62 ± 0.01"}
{"sequence": "PRPCASALPPHP", "protein stability index": "0.712 ± 0.051"}
{"sequence": "CPIASSRHSVGL", "protein stability index": "0.823 ± 0.12"}
{"sequence": "GRGVAPQGAVDA", "protein stability index": "0.714 ± 0.027"}
{"sequence": "IEESNKKIKNEI", "protein stability index": "0.713 ± 0.032"}
{"sequence": "SYMLEGVEGVGE", "protein stability index": "0.736 ± 0.086"}
{"sequence": "PPPPPLPLCRRP", "protein stability index": "0.756 ± 0.06"}
{"sequence": "RCLGFSACPATY", "protein stability index": "0.809 ± 0.14"}
{"sequence": "RPHTSPPPRHLY", "protein stability index": "0.61 ± 0.016"}
{"sequence": "TKYIGDGCVCSC", "protein stability index": "0.645 ± 0.018"}
{"sequence": "PTSQRPFFLISP", "protein stability index": "0.704 ± 0.015"}
{"sequence": "GSRRVSFFLRFG", "protein stability index": "0.647 ± 0.033"}
{"sequence": "PSQKRITDPRET", "protein stability index": "0.683 ± 0.047"}
{"sequence": "VWRGPVVAAGWG", "protein stability index": "0.659 ± 0.018"}
{"sequence": "PPPDKTPERRPC", "protein stability index": "0.644 ± 0.054"}
{"sequence": "CSRPSLPIYYCS", "protein stability index": "0.581 ± 0.028"}
{"sequence": "LPPSSLPLPCLL", "protein stability index": "0.793 ± 0.21"}
{"sequence": "PPALHRPFPPPP", "protein stability index": "0.666 ± 0.016"}
{"sequence": "FFFGFFSVLSLG", "protein stability index": "0.606 ± 0.089"}
{"sequence": "FVGACCGGSVEG", "protein stability index": "0.721 ± 0.036"}
{"sequence": "IIAGGGPARGCG", "protein stability index": "0.635 ± 0.0071"}
{"sequence": "KRKHQSPLLNTR", "protein stability index": "0.705 ± 0.021"}
{"sequence": "RKEETINKESRR", "protein stability index": "0.742 ± 0.032"}
{"sequence": "GTRAGGRSKRER", "protein stability index": "0.735 ± 0.11"}
{"sequence": "FFFFPLLSVPDR", "protein stability index": "0.6101 ± 0.0026"}
{"sequence": "CRGSGGRVVLVG", "protein stability index": "0.674 ± 0.041"}
{"sequence": "WGLCIGTGWALG", "protein stability index": "0.708 ± 0.0092"}
{"sequence": "RHSAQRPRARHP", "protein stability index": "0.79 ± 0.032"}
{"sequence": "LRDIEEIHRRGA", "protein stability index": "0.782 ± 0.013"}
{"sequence": "PPPALPPPPFPP", "protein stability index": "0.591 ± 0.011"}
{"sequence": "SRFKTVDCWKVW", "protein stability index": "0.697 ± 0.097"}
{"sequence": "PRPPHLPPPVPS", "protein stability index": "0.7299 ± 0.0016"}
{"sequence": "AGVTRALSVFLL", "protein stability index": "0.54 ± 0.043"}
{"sequence": "SRPPILAHPTPS", "protein stability index": "0.707 ± 0.049"}
{"sequence": "PTPGRSPKRLPE", "protein stability index": "0.752 ± 0.026"}
{"sequence": "PRIIPRLARPQS", "protein stability index": "0.69 ± 0.014"}
{"sequence": "SNGTRGSKLPAI", "protein stability index": "0.685 ± 0.055"}
{"sequence": "PVLRPPTPPRFR", "protein stability index": "0.661 ± 0.028"}
